Assay results reported in the RNAGym collection of RNA variant scans (doi:10.1073/pnas.2313332121).

B1: TPR t1 (parent)
chain: GACCAAUCUGCCCUCAGAGCUCGAGAACAUCUUCGGAUGCAGAGGAGGCAGGCUUCGGUGGCGCGAUAGCGCCAACGUCCUCAACCUCCAAUGCAUCCCACCACAUGAUGAUGCCUGAAGAGCCUUGGUUUUUUG

Variants of: B1
Experiment: polymerase ribozyme fitness, log enrichment relative to wild type (log ratio); higher = more active; in vitro selection for triplet polymerase activity
Procedure, shortened: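 A single round of triplicate in vitro selection, including frozen incubation at −7 °C, was applied to PCR-built, transcribed mutant libraries of each subunit of a heterodimeric triplet polymerase ribozyme. Illumina sequencing of input and output libraries retained genotypes with ≥10 input reads and ≥1 read per output. Fitness is the base-2 logarithm of genotype enrichment divided by wild-type enrichment, from inverse-variance-weighted replicate averages.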

Variant	polymerase ribozyme fitness (log ratio)
C40A C73U U125G	-1.92
C12U G36C A46U C72G U112C G127U	-1.47
A91C U96G	-1.78
U9A C49U	-0.088
A37U C62G	-3.59
C12U G47U C85G A111C	-2.51
G57U G113U	-1.79
G71U U92C	-1.11
U78A C88U U96G U129A U131A	-2.62
G63A A100U	-1.77
G44A G51C C62G C85G G110C	-7.25
C70U G107U	-4.87
C13U C56A C62U C97A C102U	-5.15
U59C G117U	-2.88
U21A C28A G71A C79U U81A G110C	-6.99
A27G G39A C53A C85A C89A G113C	-5.16
C4U U96A U106A G122A	-0.892
C3G C4G U7C C53A C123U	1.4
G120U U129C	-0.774
C70U C124U	0.579
G10A G17A	-3.1

Variant	polymerase ribozyme fitness (log ratio)
C22U A121C	-3
C53A U78A	0.532
G63U A105U	-3.37
U9G C13A C28U G47U C86G	-1.92
C11G C56A	-0.185
C13G A41U	-3.04
G36U G60A	-1.61
G39U G61U	0.39
G65C C85U A108U C123G	-7.43
G17A C85U A91C A108G A111C C124U	-6.83
A83C A100U G120A U130C	-3.75
A41G A46U G77U	-3.75
C3G U9A C72A G107U	-6.54
U9A U38A U54A U96A U133G	-1.53
C62U U112G	-0.737
C73U C86G	-2.49
A27G C56A C104U	-2.14
A2C C8A C72U C123U	-0.16
G69U A95G G135U	-0.343
G47U C64A A121U	-4.82
C70A A95G	-1.6

Variant	polymerase ribozyme fitness (log ratio)
C8G C28G C56A C88A	-3.47
A5G G60C G69A	-5.79
G17C U55G C56A G63C G77U G113A	-5.71
U7A G48C	-0.566
C20U C56G	-1.53
A18U C70A	-5.29
C8G G60U C85G A108U U131A	-5.69
C64U C80U C88U A111G C114A	-5.18
G23C C64U G120U U133A	-7.42
G36U G44A G47A G48U G69U C82G A121C	0.343
C62U U81C C94U U96C C114A	-2.82
A29G U112A	0.263
A66G U131G	-2.21
A74C G117U	-2.81
G45U G117A	-1.62
A24G G47A G77U C86U	-2.29
C56A G69U A108G U112C G117A U134C	-3.02
C12U C56U G60U	-4.18
A2C U130A	-2.07
C8A G19A C88G A95C	-5.8
A18U G71U U92G	-5.1

Variant	polymerase ribozyme fitness (log ratio)
C12U G17U C73U C88U C104A U109A	-5.21
C11G G128A	-1.59
C98U G113U	-3.5
G69A C86U	-3.19
A95G U126C	-0.892
G17A C88U U96C	-3.71
G19A C62U U78C G127C	-4.4
A6C A29U G52U C53U G120A C123U	-2.96
A2U U9A C11U A18C C20A C31G G77A A83G C97A G113U C124U	-7.17
A50G A84C C114G	-2.83
U7A G69C C115A	0.0666
C13U A26G	-2.64
C8A G52U C89U	-0.556
C3G A29U G71A A119G	-2.72
A27U C72A C82A U112C G122C	-2.28
A66C C85G U130A	-3.4
C22U U38C U78C	-4.58
U112A U133A	1.53
G45U C49U G69U A121U G128C	-1.32
A27U C72A U96A	-4.21
C3A C4U A46U C114U	-4.9
